This note sets out measurements from PMC4621449.

The target of the data set is SO_3165 antitoxin (MNT family), SO_3165-CHis (Shewanella oneidensis (MR-1)) (UniProt Q8ECH7). As to the kind of experiment: EMSA. Particulars: 10 mM HEPES pH 7.3, 20 mM KCl, 1 mM MgCl2, 5% glycerol, NP-40, poly dI-dC, 25 C, 1 h; 0.05 pmol biotin-DNA; 6% gel in 0.5x TBE. On the technique in general: Mobility shift assays separate free from complexed probe on a gel.
Chain of SO_3165 antitoxin (MNT family), SO_3165-CHis (Shewanella oneidensis (MR-1)) (Q8ECH7 whole entry): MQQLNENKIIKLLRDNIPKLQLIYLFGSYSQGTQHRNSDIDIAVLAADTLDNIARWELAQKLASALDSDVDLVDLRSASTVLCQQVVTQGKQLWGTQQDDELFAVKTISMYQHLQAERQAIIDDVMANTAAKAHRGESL

Turning to “TACGAGGCCAGAATTTAAAAGCGCAGCCGTCAGAAATGCAGCGATTAGAAGAAGTTGAAACTTCCGATGCAACCTCTTCAGACGCTGAACTACCAATACTTAAGCACACACATATAGAAAACCCGTCCCTACTATACCATAAACAATGTCAGGTACTGCGTATCGTTATAGAATGCACTAAAAAGTTCTAGATTAGAGCCACACAGTGGCGTCTTCAAAACCTGTGTCCGTCCTTTTGGCTCCGCCTTAATATGCTATATACTCATCCCGTATTCATCAAATCGTGCAATGGACCT (double strand) [PSO_3165-3166 promoter]”, the binding result is “binds”.
